Laboratory results from article PMC11094360, “Systematic characterization of gene families and functional analysis of PvRAS3 and PvRAS4 involved in rosmarinic acid biosynthesis in Prunella vulgaris” (Frontiers in Plant Science, 2024).

Legend:
PvRAS4 [1] = experiment: UPLC of product formation, nonlinear regression; type: biochemical, Prunella vulgaris; conditions: varied acyl donor, 2 mM DHPL; 100 mM Tris-HCl pH 7.0, 2 mM DTT, 4 mM MgCl2, 10% glycerol, 25 °C
Excerpt: UPLC of product formation, nonlinear regression on PvRAS4

PvRAS4 [2] = experiment: UPLC of acceptor consumption, nonlinear regression; type: biochemical, Prunella vulgaris; conditions: varied acyl acceptor, 2 mM p-coumaroyl-CoA; 100 mM Tris-HCl pH 7.0, 2 mM DTT, 4 mM MgCl2, 10% glycerol, 25 °C
Excerpt: UPLC of acceptor consumption, nonlinear regression on PvRAS4

purified protein = substrate: O=C(O)[C@H](O)Cc1ccc(O)c(O)c1; experiment: purified protein; conditions: varied acyl acceptor, 2 mM p-coumaroyl-CoA, 100 mM Tris-HCl pH 7.0, 2 mM DTT, 4 mM MgCl2, 10% glycerol, 25 °C
[3] = substrate: CC(C)(COP(=O)(O)OP(=O)(O)OC[C@H]1O[C@@H](n2cnc3c(N)ncnc32)[C@H](O)[C@@H]1OP(=O)(O)O)[C@@H](O)C(=O)NCCC(=O)NCCSC(=O)/C=C/c1ccc(O)cc1; experiment: UPLC of product formation, nonlinear regression; type: biochemical, Prunella vulgaris; conditions: varied acyl donor, 2 mM pHPL, 100 mM Tris-HCl pH 7.0, 2 mM DTT, 4 mM MgCl2, 10% glycerol, 25 °C
[4] = substrate: CC(C)(COP(=O)(O)OP(=O)(O)OC[C@H]1O[C@@H](n2cnc3c(N)ncnc32)[C@H](O)[C@@H]1OP(=O)(O)O)[C@@H](O)C(=O)NCCC(=O)NCCSC(=O)/C=C/c1ccc(O)c(O)c1; experiment: UPLC of product formation, nonlinear regression; type: biochemical, Prunella vulgaris; conditions: varied acyl donor, 2 mM DHPL, 100 mM Tris-HCl pH 7.0, 2 mM DTT, 4 mM MgCl2, 10% glycerol, 25 °C
[5] = substrate: O=C(O)C(O)Cc1ccc(O)cc1; experiment: UPLC of acceptor consumption, nonlinear regression; type: biochemical, Prunella vulgaris; conditions: varied acyl acceptor, 2 mM p-coumaroyl-CoA, 100 mM Tris-HCl pH 7.0, 2 mM DTT, 4 mM MgCl2, 10% glycerol, 25 °C
Excerpt: UPLC of acceptor consumption, nonlinear regression on PvRAS3

Q: For CC(C)(COP(=O)(O)OP(=O)(O)OC[C@H]1O[C@@H](n2cnc3c(N)ncnc32)[C@H](O)[C@@H]1OP(=O)(O)O)[C@@H](O)C(=O)NCCC(=O)NCCSC(=O)/C=C/c1ccc(O)cc1 [p-coumaroyl-CoA], which Km (PvRAS4 [1]) is on record?
A: The Km was 218 ± 10.3 µM.

Q: How did the Km (PvRAS4 [2]) turn out when O=C(O)[C@H](O)Cc1ccc(O)c(O)c1 [DHPL] was run?
A: The Km was 227 ± 17.5 µM.

Q: For O=C(O)C(O)Cc1ccc(O)cc1 (stereo not shown) [pHPL], which Km (PvRAS4 [2]) is on record?
A: The Km was 228 ± 16.6 µM.

B1: PvRAS3 (Prunella vulgaris) (protein)
chain: MKIEVKESTMVKPAAETPTGGLWISNLDLLSPANYHTLSVHFYRHDGSDNFFEAAPLKEALSRALVEFYPYAGRLKLNGKRLEIDCNGEGLLLVEAESDGTLEELGDFAPRPDLNLIPKVDYSKGISSYPLMLFQITRFKCGGVGLGVANEHHLSDGVSALHFINTWCHLARGVPAPSPAPVFDRTALSARSPPKVEFTHPEFQPPPTLPTPLEHTDIAYAKLKLSRDQLNALKAKCKSPATANGQENGKPARPYSTFEVLAGHIWRCVCAARGLPAEQETKLHIPFDGRAKLQLPAGFFGNAIFFATPIATCGEVEANSLSYAVRRVGDAIGRLDEEYLRSSVDFLELQDDISKLAQGAHSFRCPNLWVISWVRLPIYEPDFGWGKAVYMGPWAAPFEGKSYLLPNPDNDGSLFVAITLHTQHMDRFQNFFYDI
Q: What does the source list for B1?
A: Km (purified protein): 41.7 ± 1.2 µM; Vmax (purified protein): 18.2 µmol/min/mg; kcat (purified protein): 30.5 s⁻¹; kcat/Km (purified protein): 700000 M⁻¹ s⁻¹; Km [3]: 30.6 ± 1.2 µM; Vmax [3]: 18.7 µmol/min/mg; kcat [3]: 34.3 ± 2.2 s⁻¹; kcat/Km [3]: 1.1e+06 M⁻¹ s⁻¹; Km [4]: 173.2 ± 9.0 µM; Vmax [4]: 9.95 µmol/min/mg; kcat [4]: 14.1 ± 1 s⁻¹; kcat/Km [4]: 80000 M⁻¹ s⁻¹; Km [5]: 32.1 ± 0.7 µM; Vmax [5]: 19.4 µmol/min/mg; kcat [5]: 33.3 ± 2.3 s⁻¹; kcat/Km [5]: 1e+06 M⁻¹ s⁻¹
